Source: the DeepSol protein solubility set

Experiment: soluble on expression in E. coli; label from the status in PepcDB or PDB records
In the case of “MSSTALLPPNTDQVLSRRLHGKAAEKKTGLAAIASKDVDEQSRKLQEYFEFWDRNHENESEEDRARRIDGYKSVVNSYYDLATDLYEYGWSQSFHFSRFYKGEAFAQSIARHEHYLAYRMGIKPGSRVLDVGCGVGGPAREITEFTGCNLVGLNNNDYQISRCNNYAVKRNLDKKQVFVKGDFMHMPFEDNTFDYVYAIEATVHAPSLEGVYGEIFRVLKPGGVFGVYEWVMSDDYDSSIPKHREIAYNIEVGDGIPQMVRKCDAVEAIKKVGFNLLEEDDLTDHDNPDLPWYYPLTGDITKCQNIWDVFTVFRTSRLGKLVTRYSVQFLEKIGVAAKGTSKVGDTLAIAQKGLIEGGETHLFTPMFLMIAKKPETDA”, the “soluble on expression in E. coli” value is reported as “soluble”.
In the case of “MGHHHHHHSHMQTLPVASALSSHRTGPPPISPSKRKFSMEPGDEDLDCDNDHVSKMSRIFNPHLNKTANGDCRRDPRERSRSPIERAVAPTMSLHGSHLYTSLPSLGLEQPLALTKNSLDASRPAGLSPTLTPGERQQNRPSVITCASAGARNCNLSHCPIAHSGCAAPGPASYRRPPSAATTCDPVVEEHFRRSLGKNYKEPEPAPNSVSITGSVDDHFAKALGDTWLQIKAAKDGASSSPESASRRGQPASPSAHMVSHSHSPSVVS”, the “soluble on expression in E. coli” value is reported as “not soluble”.
For “MTTTLSPDTARQIVPPEERYAAELAFLAAYDDGPRPPAWRLTPRAVVTFVMGSDGRALRLPEGAETPEGVPRRLTVEGKFVGDRSLVERCVVTLAGERGLLLVGEPGTAKSMLSELLSAAVCGTSGLVVQGTAGTTEDQLKYGWNYALLLAQGPSRTALVPSPVLTAMARGGIARVEEVTRCLPEVQDALVSLLSERRIAVPELSGTDDALAHAAPGFNLIATANLRDKGVSEMSAALKRRFNFETVGPIPDLDAETALVRSQARASVERAGAPFKVDEAVLEALVVAFRDLREGRSTEGWEVERPSTVMSTAEAVSVAGALGLAAAYFPGDRDVLGLLPGHLLGVVRKDDPADAARLRGYWDGPVRRRAEQGSATWRTLWDLRTVLEGLEHHHHHH”, the “soluble on expression in E. coli” value was “not soluble”.
In the case of “MGSDKIHHHHHHMMETTQFNPIQLKRARVARGKTMKVLAEETGISRQMISNYELGKTVPSGLNLVKLISVLNFPKNYFSATQASNLHGATFFRSQNAATKRARDMQSVRLSFQNDIYTTLSQYVNFPKVDLPESLDMDVDDITNDNIKFMAMRVRDQWDLGTKTPIENLIQTAEIHGIVVVKTNMTNDKLDAVSEIIEGRPFIMLTDNGESAVRRRFNVAHELGHIVLHAGIESIHDFTSQQLKNTIERQANLFASTFLMPDDAFVESLLSTSLDYYIKLKQYWKASIQSMIYKTYQLGLINDDQKLYLNKKISWNKWRKIEPLDNILEIENPTLFGKVFNMIIDHKVVSQADLLSELKLPFDELECSLGIQLATQKNISEPKLRLL”, the “soluble on expression in E. coli” value is reported as “not soluble”.
With “MKQLSSFDIKACVRELKELEGGKVEKVYHHPPDEIRIRIYAGRKVDLVIEAGRRIHLTKFPKQAPRFPSAFAMLLRKHLEGARIKKIEQYDFDRVVVIEFERFGEIRRIVAELFSKGNVVLLNEENRVIMPLKHTIKVGELYRFPEQRERKDEDREVVRVLAMSGLGGLYAEEVCLRAGIDKKKKYAELSEDERKKIDEEIERLMNFTPKPQIILKDGDYLDVVPMDLLYYSNYEKKYFESFNDALDDYFSKKLAEMDELESMKSEELEKLKKRLEIQKESLRKFEDEAESFRKIGDAIYENYQMVEKIIEAFRAARERKSWDEIKEIVARDEKLKKLVKAIKPEKNAIVVKVGDFDVELEIKKSIHENADLYYEKAKKAREKAEGVKRAIEATLREMERVEEKLEKKLVTSIKVRRKKEWYE” the “soluble on expression in E. coli” value was “not soluble”.
For “MEDPQSKEPAGEAVALALLESPRPEGGEEPPRPSPEETQQCKFDGQETKGSKFITSSASDFSDPVYKEIAITNGCINRMSKEELRAKLSEFKLETRGVKDVLKKRLKNYYKKQKLMLKESNFADSYYDYICIIDFEATCEEGNPPEFVHEIIEFPVVLLNTHTLEIEDTFQQYVRPEINTQLSDFCISLTGITQDQVDRADTFPQVLKKVIDLMKLKELGTKYKYSLLTDGSWDMSKFLNIQCQLSRLKYPPFAKKWINIRKSYGNFYKVPRSQTKLTIMLEKLGMDYDGRPHCGLDDSKNIARIAVRMLQDGCELRINEKMHAGQLMSVSSSLPIEGTPPPQMPHFRK”, the “soluble on expression in E. coli” value was “soluble”.
With “MPKLVTWMNNQRVGELTKLANGAHTFKYAPEWLASRYARPLSLSLPLQRGNITSDAVFNFFDNLLPDSPIVRDRIVKRYHAKSRQPFDLLSEIGRDSVGAVTLIPEDETVTHPIMAWEKLTEARLEEVLTAYKADIPLGMIREENDFRISVAGAQEKTALLRIGNDWCIPKGITPTTHIIKLPIGEIRQPNATLDLSQSVDNEYYCLLLAKELGLNVPDAEIIKAGNVRALAVERFDRRWNAERTVLLRLPQEDMCQTFGLPSSVKYESDGGPGIARIMAFLMGSSEALKDRYDFMKFQVFQWLIGATDGHAKNFSVFIQAGGSYRLTPFYDIISAFPVLGGTGIHISDLKLAMGLNASKGKKTAIDKIYPRHFLATAKVLRFPEVQMHEILSDFARMIPAALDNVKTSLPTDFPENVVTAVESNVLRLHGRLSREYGSKLEHHHHHH” the “soluble on expression in E. coli” value was “soluble”.
In the case of “MLYVILRGRLGNNLFQIATAASLTQNFIFCTVNKDQERQVLLYKDSFFKNIKVMKGVPDGIPYYKEPFHEFSRIPYEEGKDLIIDGYFQSEKYFKRSVVLDLYRITDELRKKIWNICGNILEKGETVSIHVRRGDYLKLPHALPFCGKSYYKNAIQYIGEDKIFIICSDDIDWCKKNFIGKRYYFIENTTPLLDLYIQSLCTHNIISNSSFSWWGAWLNENSNKIVIAPQMWFGISVKLGVSDLLPVSWVRLPNNYTLGRYCFALYKVVEDYLLNILRLIWKRKKNMLEHHHHHH”, the “soluble on expression in E. coli” value is reported as “not soluble”.
For “TPEHRAVAREVAAETFVLLKNENHLLPLEEKGKIALIGPMADARNNMCGMWSMTCTPSRHGTLLEGIRSAVGDKAEILYAKGSNVYYDAEMEKGAVGIRPLERGNDQQLLAEALRTAARADVIVAAVGECAEMSGESPSRTNLEIPDAQQDLLKALVKTGKPVVLLLFTGRPLILNWESEHIPSILNVWFGGSETGDAVADVLFGKAVPCGKLTTTFPRSVGQLPLFYNHLNTGRPDPDNRVFNRYASNYLDESNEPLYPFGYGLSYTDF”, the “soluble on expression in E. coli” value was “not soluble”.
With “MAIGVQKKTSTPLDVGTEQEPTNLEKTIGTLRRCLQIAGTSNKPGSRSAKNSISEESNDLTMEESVPEASKWPHCQHMISQDEAPRNDELASPNIRIVAYKDESQINDIMRLITKDLSEPYSIYTYRYFLHNWPEYCFLAYDQTNNTYIGAVLCKLELDMYGRCKGYLAMLAVDESCRRLGIGTRLVRRALDAMQSKGCDEIVLETEVSNKNAQRLYSNLGFIRQKRLLKYYLNGGDAFRLKLIFTSRRVRSLNNQENYQPRCRVNEDDTPDEEEGTY” the “soluble on expression in E. coli” value was “not soluble”.
With “ELRAKERKIIRDKEDGLNPQLADRMTLNELYDRFIEQKYDLKPSTKVNYLYMYNHFVRPTFGKRLIGKIKYSDVKKFYYRIILDEEMKANTLDSIHTQLHPAFQMAVRDGLLRQNPTDGLMAEIKKSHIWEDNPRHALTIPQQKAFMDYLKAHREYQGWVPIITVLLGTGMRIGECIGLRWDDLDFEKRIVSVNHTFIYRPDENRKSVKHISTPKTISGRRTIPMIDEVFNAFLDEYEIQKCIGFSSEEIDGYSNFVFVTATGTVYLPNAVNRAIERARVAYNKDEIEIAEKEDREPLIIPHF” the “soluble on expression in E. coli” value was “not soluble”.
In the case of “MAKSNSNNSHNEADTLSSLLSSVGSSYDGESDSTFVSTGTTPSSSRRSRLDSFLSTTSSSKSRPRIKSKLPRSSSSGFSGTGSERSISSKRSKIGNTSGNRNKISQSARRRLLQAEIESRRNRSNKSPGSSRKSILKKSPMKKRRSLSRKSLPKKEHIPPVQKFAIIKNPAARNQVRGFVAEYAQDPEFEAFELLVDGIPFVALSLMNAHPDLRGRFKPVPPPTPMKKHTPGINSPRKRPLRRESISSVNSKSVRFTDEGSSFSKRARKSSSGDVDSSIRELGETVSDAMIDTGRQYNDLWKDRAHSVEK”, the “soluble on expression in E. coli” value is reported as “not soluble”.
For “MGSDKIHHHHHHMYRLMDRQQMPFLFRFLSDSELYAFKDGQIISTFNKCGLFFCRKGNVEVSLEDKHFQINPGDVYIYMASTLVHLLHKSEDAEGVMVEVDLDYIIPIVNRVINVENQLFMRKHPCISLSDKQRAHLEYLLDNLRERIEAEDVQEVNLQQQRLTLELIKSMGQTFCYEILNMYFANQPMQPLPQNKKDVIFQNFMLALFRLYRKERDVAYYARMQHITPRYFSTIIKEKSGNSALQWIVQMVITEAKQLLEGSDLSIKEIADQLNFPTQSFFGKYFKQYVGISPKEYRKGKLRIKDGI”, the “soluble on expression in E. coli” value was “not soluble”.
For “TPDRHQFPGLANKTYFNFGGQGILPTVALEAITAMYGYLQENGPFSIAANQHIQQLIAQLRQALAETFNVDPNTITITDNVTTGCDIVLWGLDWHQGDEILLTDCEHPGIIAIVQAIAARFGITYRFFPVAATLNQGDAAAVLANHLGPKTRLVILSHLLWNTGQVLPLAEIMAVCRRHQGNYPVRVLVDGAQSAGSLPLDFSRLEVDYYAFTGHAWFAGPAGVGGLYIHGDCLGEINPTYVGWRSITYGAKGEPTGWAEGGKRFEVATSAYPQYAGLLAALQLHQRQGTAEERYQAICQRSEFLWRGLNQLPHVHCLATSAPQAGLVSFTVDSPLGHRAIVQKLEEQRIYLRTIADPDCIRACCHYITDEEEINHLLARLADFGP”, the “soluble on expression in E. coli” value was “soluble”.
For “MSLSSEVVLMKPYEKLVERFNEMAAEFLSYFPTVKSVGNLESELDKRRFVILFRAMLRLRNEVKGYNEFDAEDLTIEEQRFADYQSKYLDMSNEFAITSEKEDAESILQDIDFELELVHRDIINVMYILALLQDLKPESSSYPKDRKAVLDTMDSNPELRSKIALIDNFIKLHIDGRQSNDLPADMESDLDKYIATQKAIAIEQVATEEGIDSTLLHEYISEYEYLGKPKNEIIKRAIDPLKLSFMDAQSKKKSLIDKMKDIIKLFSWNEGHHHHHH”, the “soluble on expression in E. coli” value was “soluble”.
With “MSLNKRKGILAIGAHPDDIELGCGASLARLAQKGIYIATVVMTTGNSGVDGIIDRHEESRNALKILGCHQTIHLNFADTRAHLQLNDMISALENIIKNQIPSDVEIIRVYTMHDADRHQDHLAVYQASMVACRAIPQILGYETPSTWLSFMPQVFESVKEEYFSLKLTALKKHKSQSQRDYMRPERLRAVAQFRGQQVNSDLGEGFVIHKMILEGHHHHHH” the “soluble on expression in E. coli” value was “not soluble”.
With “GREEAPNAEADILSCRLPGVVMTTSPIITNNSINIFVGPGTDISSLAPEFTLTPGATIDPPSGTARDFHSPQQYTVTAADGFWKKKYTVSVIDTELATIYNFEDTLGGQKYYIFVEREGEKVVMEWASGNAGYAMTGVPKTADDYPTFQFANGKTGKCLSLVTRSTGFFGSIMGMPIAAGNLFIGSFDVGNAMSNPLKATKFGLPFRHIPTYLAGYYKYKAGDQFTEGGKPVSGKRDICDIYAIMYETSESVPTLDGTNAFTSPNLVSIARIDDAKETDEWTYFKLPFHMLSGKYIDKEKLTAGKYNVAIVFTSSLEGDHFNGAIGSTLLIDEVELIYRSED” the “soluble on expression in E. coli” value was “soluble”.
For “MSLRAQGEVVLSIDGEPVKRSEFEYYFRKSSHRTPLSFLPSFINYKLKVRYAHDMGIDTLSVFRRQVDWYRGKLLRTYLADAEKEEQAARRLYLQGEQRLQANDWIKIAHISKYLSQNASRQEEMRVRQQMDSVYEALREGADFATLARRYSDDEACKNVGGVLPWMPVNKNMQEWIDKLESLERNKISAPFYSPMGIHIVKWIDRRQGVSFEEKREQLLNYLEKNGNCTWKELSAEQKEELEFRVQELQDGLLAAYLSQKYQSGDEAWNEDDLERFFKQHKSDYAWELPHYRGAVIHCKDRKTASAIKKQLKKKPVSQWKDILHTLTGDDASSKVRMEAGVFQIGTNRYIDKLVFKCGSFQPEPDLPYTFVMGKKLKKGPESYEDVREAVVKDYLTVYEDAWLKDLKRKYKVEINQEVLKTVNNNGSEGHHHHHH”, the “soluble on expression in E. coli” value was “not soluble”.
